This is an account of results in PMC4871718 (Nature chemical biology, 2016).

The target of one experiment is T1, CIB1-CreC (UniProt Q8GY61).
T1 sequence (Q8GY61 whole entry, looked up): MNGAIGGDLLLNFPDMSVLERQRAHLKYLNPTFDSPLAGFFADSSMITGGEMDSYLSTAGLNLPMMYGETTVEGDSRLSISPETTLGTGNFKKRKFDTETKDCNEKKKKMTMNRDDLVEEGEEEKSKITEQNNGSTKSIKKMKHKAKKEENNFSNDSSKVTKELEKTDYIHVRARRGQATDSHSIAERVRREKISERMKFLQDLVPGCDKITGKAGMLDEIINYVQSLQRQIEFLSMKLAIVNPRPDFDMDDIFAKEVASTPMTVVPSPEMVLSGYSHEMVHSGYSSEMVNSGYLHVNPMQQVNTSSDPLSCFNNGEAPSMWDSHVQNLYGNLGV

Another experiment concerns the target LexABD-CRY2(535) (Arabidopsis thaliana, UniProt Q96524 1-535). The experiment in a line: two-hybrid.

As for “CRY2(L348F)-CreN (from UniProt Q96524 1-612; P06956 1-104)”, in the experiment with CIB1-CreC, the Cre recombination with extended 24 hour illumination was over 50%.

B1: VP16-CIB1 (natural protein, UniProt Q8GY61 1-335, looked up)
chain: T1 sequence (Q8GY61 whole entry, looked up)
Consider B1, for which the “fold reduction in dark activity against LexABD-CRY2PHR” value with LexABD-CRY2(535) stood at 26 fold.
